Experimental data taken from US9328143B2, “Peptide derivatives and use thereof as carriers for molecules in the form of conjugates” (VECT-HORUS, priority 2008, dated 2016).
Where no end group is shown, it is not given here. [ ]: non-standard residue; d: D form. Rhodamine = not defined here

Legend:
[1] = In situ perfusion in mouse, transport across the blood-retinal barrier; assay type: in vivo
Description: (§1) This strategy of in situ brain perfusion normally carried out in the rat was adapted for mouse (Dagenais et al., 2000, J Cereb Blood Flow Metab., 20(2), 381-6) in order to broaden its application for evaluating the parameters of transport kinetics at the BBB and the blood-retinal barrier, in transgenic and KO mutant mice for the receptors, enzymes or transporters of active substances. It involves catheterisation of a carotid artery in anaesthetised OF 1 mice and ligature of some branches of this carotid artery (external, thyroidal, occipital) in order to specifically perfuse the internal carotid and pterygopalatine arteries, which are used to evaluate the uptake in the brain of the vectors and conjugates. The catheter makes it possible to replace general circulation by infusion with a well-controlled perfusate (bicarbonate buffer, plasma or blood) by passing by the carotid. Oxygenated Krebs bicarbonate buffer is first used to evaluate the capacities of the vectors and conjugates to gain access to the brain. After catheterisation of the carotid, endogenous blood flow is stopped by sectioning the ventricles of the heart in order to avoid the mixture of buffer with blood and elevation in blood pressure. The duration of the fixed flow-rate perfusion is monitored. The buffer perfusion can be extended up to 20 min, or up to 1 h in the presence of oxygen transporters (washed erythrocytes) for studies of receptor-mediated transport (RMT).
In addition, the Kin of these various peptides, across the blood-retinal barrier (BRB), were also determined. Kin of SEQ ID NO: 11=1.2±0.2×10^−4 ml/s/g Kin of SEQ ID NO: 48=2.4±0.3×10^−4 ml/s/g Kin of SEQ ID NO: 73=0.0±0.0×10^−4 ml/s/g Kin of SEQ ID NO: 72=11.5±3.3×10^−4 ml/s/g Kin of SEQ ID NO: 74=1.8±0.2×10^−4 ml/s/g

hLDLR [2] = biological target: T1, hLDLR (Homo sapiens, UniProt P01130); assay: Displacement of SEQ ID NO: 11/S-Tag on CHO-hLDLR-RFP cells (FRET); assay type: binding; design: expressed in transfected cells; conditions: 10 μM peptide vs 10 μM SEQ ID NO: 11/S-Tag
Procedure: For the FRET approaches, cells are washed twice with 2 ml PBS and then incubated for 1 h at 37° C. with 250 μl peptide solution. They are again washed twice with 2 ml PBS and then twice with 1 ml PBS, and then scraped in 1 ml PBS and centrifuged for 5 min at 1,250 rpm. The supernatant is then aspirated and the cell pellet is lysed in 80 μl PBS+0.1% Triton X100. Twenty μl of each cell lysate are analysed by measuring fluorescence emission after the FRET reaction.
A study of the structure/activity (affinity) relationships was carried out on peptide vector SEQ ID NO: 11 via the alanine scanning (Ala-scan) technique and by N- and C-term truncation in order to determine the importance of each of the 15 constitutive amino acids of this peptide. […] Briefly, the CHO-hLDLR-RFP cells used are adherent and at confluence.
They are grown in six-well plates. Three wells of cells are used per condition.
A solution containing 10 μM peptide SEQ ID NO: 11/S-Tag is prepared in HamF12-1% BSA culture medium. To this solution is added 10 μM peptide resulting from the Ala-scan to be evaluated (competition). […]

[3] = In situ brain perfusion in mouse, transport across the BBB; assay type: in vivo
Procedure: The in situ brain perfusion technique (in adult male OF1 mouse) is used here to select the best vectors and to provide proof of their mechanism of action for their passage in the brain across the BBB.
Radioactive peptides with high specific radioactivity (SRA, up to 100 Ci/mmol) are prepared by a strategy of acylation of the N-term amine function by tritiated propionic (or propanoic) anhydride or tritiated N-propionyl-succinimide (NPS).
The tritiation reaction of peptide vectors SEQ ID NO: 11 and SEQ ID NO: 48 in the N-term position by propionylation is carried out in DMF (1 mg peptide in 100 μl to 450 μl according to solubility) by adding 0.1 equivalent of tritiated NPS for 5 min at room temperature, then 0.9 equivalent of cold NPS (non-tritiated) for 1 h, and then a new equivalent of cold NPS for 5 h. The reaction medium is then left at 4° C. overnight and purified the following day by HPLC. The SRA for each tritiated peptide is between 5 Ci/mmol and 10 Ci/mmol (theoretically on the order of 7.7 Ci/mmol). The total quantity of radioactivity prepared by synthesis is between 600 μCi and 950 μCi.
The techniques briefly summarised below were developed to study the distribution in the brain of active substances and, in particular, the role of the BBB and, more particularly, of LDLR in the penetration of these molecules in the brain. In situ brain perfusion techniques are among the most technically demanding and the most difficult to perform in the mouse. However, in situ brain perfusion (like in vitro models) enables total control of the composition of the artificial perfusate in order to maintain the cells and vascularisation of the brain under normal physiological and anatomical conditions within the animal, without the disrupting factor of systemic distribution.
as §1
The study of peptide vector SEQ ID NO: 11 made it possible to determine its brain transport or transfer coefficient (Kin). The duration of brain perfusion for these experiments is 5 min with a perfusate flow rate of 2 ml/min. Thus, the calculation of the Kin (volume of distribution over time of brain perfusion) of peptide vector SEQ ID NO: 11 gives a value of 3.5±0.2×10^−4 ml/s/g.

[4] = system: bovine brain microvascular endothelial cells (BBMEC); assay: Binding and/or internalisation in endothelial cells of in vitro BBB model; assay type: cell-based; conditions: rhodamine fluorescence after cell lysis, 2 h, 5 h, 24 h
Procedure: The medium is changed twice per week. […] This BBMEC medium is changed three times per week.
This analysis was carried out by lysis of endothelial cells at various times (2 h, 5 h, 24 h), and by fluorimetric measurements of the quantity of fluorescence (rhodamine) associated with the cells (membrane and cytoplasmic compartments obtained by centrifugation of these cells after lysis).

[5] = system: bovine brain microvascular endothelial cells (BBMEC); assay: Passage (Pe) across in vitro BBB model
Procedure: The potential toxic effects of peptides on endothelial cells, the binding/accumulation of peptides in these cells, and the passage by transcytosis of peptides were evaluated on in vitro BBB models. The cells necessary to set up the model (co-culture of endothelial cells from brain microvessels and astrocytes) are bovine cells (bovine brain microvascular endothelial cells, BBMEC) sold by Cellial Technologies (Lens, France).
The in vitro BBB model brings into play a co-culture of BBMECs and astrocytes. […]
The culture medium of the lower chamber is collected at various times and fluorescence quantified by fluorimetric analysis. The results are expressed as endothelial surface permeability (Pe) in units of 10^−3 cm/min. […] Transendothelial electrical resistance (TEER), measured with an ohmmeter and expressed in ohm·cm^2, also makes it possible to measure BBB integrity in vitro during tests of passage across the BBB. […]
This analysis is carried out by measuring by fluorimetry the quantity of fluorescence accumulated in the receiver wells at various times (1 h, 4 h, 24 h). The integrity of the BBB in the various wells analysed was evaluated by simultaneous measurement of the level of LY that passes from one compartment to the other as a function of time.

hLDLR [6] = biological target: T1, hLDLR; assay: Binding and endocytosis of tracer-conjugated synthesised peptides in CHO-hLDLR-GFP cells (fluorescence, immunocytochemistry); assay type: cell-based; design: expressed in transfected cells; conditions: CHO-LDLR-GFP cells, tracer-conjugated peptide, vs control peptides
Description: GFP fluorescence is visible in green (A1, B1 and C1); that related to peptides, visualised by rhodamine or by binding of an anti-S-Tag antibody coupled to Alexa594 is visible in red (A2, B2 and C2); and the superimposing of red and green stains is visible in yellow/orange (A3, B3 and C3). […] S-Tag (a 15 amino acid peptide derived from sequence 1-15 of bovine pancreatic ribonuclease A) on the one hand can be recognised by an anti-S-Tag antibody for immunocytochemistry or FACS approaches, and on the other hand can reconstitute enzymatic activity by binding with ribonuclease S-protein (C-term portion, amino acids 21-124) in tests of activity in vitro using the FRETWorks S-Tag assay kit (Novagen 70724-3). The ribonuclease thus activated digests an RNA substrate releasing a masked fluorescent agent visualised by FRET (fluorescence resonance energy transfer) and quantified in a 96-well plate in a Beckmann spectrofluorimeter. For these FRET experiments, control CHO cells and GFP fused in the C-term position with hLDLR and mLDLR, which generates strong background noise at the wavelengths used for FRET, was replaced by red fluorescent protein (RFP). The stable cell lines generated for the FRET experiments are thus CHO-RFP and CHO-hLDLR-RFP. Experiments involving the incubation of peptides on various cells expressing hLDLR were performed.

hLDLR [7] = biological target: T1, hLDLR; assay: FACS on HUVEC: competition between peptides expressed by bacterial viruses and natural ligand LDL; assay type: binding; design: endogenous in cells; host or cells: HUVEC (human umbilical vein endothelial cells), not genetically modified
Description: Evaluation by FACS on HUVEC of competition between the peptides expressed by the bacterial viruses with affinity for LDLR and its natural ligand LDL.
I—Graph representing the percentage of shift of the fluorescence signal in zone Q2 of graphs A-H obtained by FACS. […] Adding LDL leads to an 85% loss of signal in Q2 in […], indicating competition between the bacterial virus corresponding to peptide sequence SEQ ID NO: 21 and LDL at the site where LDL binds to hLDLR. The equally strong signal in Q2 of the bacterial viruses that express peptide SEQ ID NO: 11 (shift greater than 70% compared to control bacterial viruses) is only slightly shifted (17%) by adding LDL.
First, it is shown that the binding rate of bacterial viruses expressing peptides with affinity for hLDLR (SEQ ID NO: 21 and SEQ ID NO: 11 are used here as examples) is proportional to the level of LDLR expression by HUVEC. FACS experiments carried out in the presence of LDL made it possible to show and quantify a strong shift (85%) of LDL by linear peptides (for example SEQ ID NO: 21), but a small shift (17%) by cyclic peptides (for example SEQ ID NO: 11).

hLDLR [8] = biological target: T1, hLDLR; assay: FACS: binding of bacterial viruses expressing peptides to HUVEC; design: endogenous in cells; host or cells: HUVEC (human umbilical vein endothelial cells), not genetically modified
Procedure: Evaluation by FACS of the interaction between HUVEC and two clones of bacterial viruses expressing peptides, one cyclic (SEQ ID NO: 11), the other linear (SEQ ID NO: 21), with affinity for hLDLR, compared with control bacterial viruses not expressing peptides with affinity for this receptor.
Qualitative immunocytochemistry was supplemented with quantitative flow cytometry (FACS) with suspended cells (GFP cell line, CHO-hLDLR-GFP cell line, human fibroblasts, HUVEC). These cells were grown in culture medium, mechanically unbound and dissociated (without trypsin), centrifuged, resuspended and incubated in the presence of various bacterial virus clones and anti-LDLR antibody, for 20 min at 4° C. in order to avoid any process of endocytosis. After washings, the bacterial viruses bound to cells were visualised with anti-viral envelope protein antibody. FACS analyses were carried out with a FACSCanto system (Becton Dickinson) using BD FACSDiva software. The number of positive cells was standardised with 5,000 events for each test. The results were expressed in arbitrary units of fluorescence.
FIGS. 9, 10, 11 correspond to the results obtained for peptides SEQ ID NO: 11, SEQ ID NO: 12 and SEQ ID NO: 21 on cells of the CHO-hLDLR-GFP cell line (FIG. 9), human fibroblasts (FIG. 10) and HUVEC (FIG. 11).

[9] = mouse in situ brain perfusion, BBB, 5 min, perfusate flow rate 2 ml/min, tritiated peptide

T1 sequence (P01130 22-860): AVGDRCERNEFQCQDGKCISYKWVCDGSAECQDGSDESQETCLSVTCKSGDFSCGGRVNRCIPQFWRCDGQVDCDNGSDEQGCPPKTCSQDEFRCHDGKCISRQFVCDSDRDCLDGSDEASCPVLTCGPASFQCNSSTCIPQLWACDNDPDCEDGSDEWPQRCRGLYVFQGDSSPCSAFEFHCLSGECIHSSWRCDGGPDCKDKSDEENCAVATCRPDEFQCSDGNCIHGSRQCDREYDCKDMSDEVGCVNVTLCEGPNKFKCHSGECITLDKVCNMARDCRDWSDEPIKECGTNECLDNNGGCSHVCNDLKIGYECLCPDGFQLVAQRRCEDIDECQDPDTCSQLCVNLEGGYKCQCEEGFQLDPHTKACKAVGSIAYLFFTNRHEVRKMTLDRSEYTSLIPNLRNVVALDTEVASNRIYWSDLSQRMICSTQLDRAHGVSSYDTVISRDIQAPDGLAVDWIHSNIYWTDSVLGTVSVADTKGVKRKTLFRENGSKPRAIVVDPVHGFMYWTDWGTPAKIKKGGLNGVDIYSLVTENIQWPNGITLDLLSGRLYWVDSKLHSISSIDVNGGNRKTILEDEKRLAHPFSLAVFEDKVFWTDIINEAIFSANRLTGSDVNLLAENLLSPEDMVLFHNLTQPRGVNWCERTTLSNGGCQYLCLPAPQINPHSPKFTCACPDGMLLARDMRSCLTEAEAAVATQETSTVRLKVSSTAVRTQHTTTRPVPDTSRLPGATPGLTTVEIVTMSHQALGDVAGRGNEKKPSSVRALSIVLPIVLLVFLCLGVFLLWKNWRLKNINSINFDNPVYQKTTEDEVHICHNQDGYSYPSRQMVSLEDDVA

Substance: (D)-CMPRLRGC [SEQ ID NO: 48]
- Kin across the blood-retinal barrier (BRB) ([1]; mouse, in vivo): 2.4±0.3 ×10^−4 ml/s/g
- in vitro affinity for LDLR (displacement of SEQ ID NO: 11/S-Tag) (hLDLR [2]): excellent affinity
- Kin (brain transport or transfer coefficient) ([3]; mouse, in vivo): 4.8±0.4 ×10^−4 ml/s/g
- improvement of passage in the brain, factor vs SEQ ID NO: 11 ([3]; mouse, in vivo): 1.37

Substance: CMPRC [SEQ ID NO: 73, control peptide for the brain perfusion study, reference compound]
- Kin across the blood-retinal barrier (BRB) ([1]; mouse, in vivo): 0.0±0.0 ×10^−4 ml/s/g
- Kin (brain transport or transfer coefficient) ([3]; mouse, in vivo): 1.5±0.2 ×10^−4 ml/s/g

Substance: SEQ ID NO: 1 conjugated with rhodamine: peptide SEQ ID NO: 1 conjugated in the C-term position with rhodamine via a spacer of three Gly residues (HLDCMPRGCFRNGGG-Rhodamine; cysteine pairing not given here; reading uncertain)
- binding and/or internalisation rate in endothelial cells [4]: more affinity for endothelial cells in an in vitro BBB model than the control peptide
- rate of passage (Pe) across in vitro BBB ([5]; 1 h and 4 h): cannot be distinguished from nonspecific or paracellular passage
- rate of passage (Pe) across in vitro BBB ([5]; 24 h): quite significantly higher than that of the control peptide
- binding to cells expressing hLDLR (hLDLR [6]): bind well to CHO-LDLR-GFP cells
- endocytosis / intracellular accumulation (hLDLR [6]): incorporated by endocytosis
- endocytosis / intracellular accumulation (hLDLR [6]; listed as SEQ ID NO: 1/rhodamine): high levels of intracellular staining

Substance: TPSAHAMALQSLSVG [SEQ ID NO: 21]
- effect of LDL on binding of peptides expressed by bacterial viruses (hLDLR [7]; FACS, LDL added): strongly decreases the binding
- loss/shift of signal in Q2 on adding LDL (hLDLR [7]; peptide expressed by bacterial viruses, in the presence of LDL): 85%
- shift of the signal in Q2 (FACS) (hLDLR [8]; peptide expressed by bacterial virus clone, vs control bacterial viruses): significant shift
- percentage of shift of the fluorescence signal in zone Q2 (hLDLR [8]; peptide expressed by bacterial viruses, without LDL): more than 55.8%

Substance: Y-(D)-AGFLR (Y[dA]GFLR) [SEQ ID NO: 74, analgesic therapeutic peptide, dalargin, reference compound]
- Kin across the blood-retinal barrier (BRB) ([1]; mouse in situ perfusion, BRB): 1.8±0.2 ×10^−4 ml/s/g
- Kin (brain transport or transfer coefficient) [3, 9]: 0.9±0.1 ×10^−4 ml/s/g

Substance: Y-(D)-AGFLRGFAL-(D)-CMPRLRGC (Y[dA]GFLRGFAL[dC]MPRLRGC; cysteine pairing not given here) [SEQ ID NO: 72]
- Kin across the blood-retinal barrier (BRB) ([1]; mouse in situ perfusion, BRB): 11.5±3.3 ×10^−4 ml/s/g
- BRB crossing, factor vs non-vectorised free dalargin (SEQ ID NO: 74) ([1]; ratio of Kin, BRB): 6.39
- Kin (brain transport or transfer coefficient) [3, 9]: 19.6±3.9 ×10^−4 ml/s/g
- passage in the brain, factor vs non-vectorised free dalargin (SEQ ID NO: 74) ([3]; ratio of Kin, BBB): 21.78
